Results on 3 molecules are retold here after patent publication EP4617282A1 (Institute Of Pathogen Biology, Chinese Academy Of Medical …, dated 2024).

Assay [1] deals with HIV-1NL4-3 Env (envelope glycoprotein of the HIV-1NL4-3 pseudovirus) (HIV-1 (strain NL4-3)). The assay can be described thus: cell-based or functional assay.
The target of assay [2] is HIV-1JRFL Env (envelope glycoprotein of the HIV-1JRFL pseudovirus) (HIV-1 (strain JRFL)). Nature of the assay: cell-based or functional assay.

B1: lipopeptide LP-104 (peptide)
peptide: Ac-WEEWEKKIEELEKKIEELLKKAEEQQKKNEEELKKLEK-NH2
modifications: not fully specified (residue 38)
For B1, in assay [1], the “IC50, inhibition of pseudovirus infection of TZM-bl cells (luciferase)” value is 14.5 pM and the “fold reduction of antiviral activity as compared to lipopeptide LP-101” value was roughly 32 fold. Besides, in assay [2], the “IC50, inhibition of pseudovirus infection of TZM-bl cells (luciferase)” value was found to be 60.2 pM and the “fold reduction of antiviral activity as compared to lipopeptide LP-101” value was roughly 27 fold.

B2: lipopeptide LP-98 (peptide)
peptide: Ac-YEQKIEELLKKAEEQQKKNEEELKKLEK-NH2
modifications: not fully specified (residue 28)
As for B2, the “average IC50, inhibition of pseudovirus infection of TZM-bl cells (luciferase)” value in assay [1] is 1.07 pM; in assay [2], 2.58 pM.

B3: lipopeptide LP-101 (peptide)
peptide: Ac-EIEELEKKIEELLKKAEEQQKKNEEELKKLEK-NH2
modifications: not fully specified (residue 32)
As for B3, the “average IC50, inhibition of pseudovirus infection of TZM-bl cells (luciferase)” value was found to be 0.46 pM in assay [1] and 2.26 pM in assay [2].
